# Experiments:
# [1] = molecular target: hHGF-Fc C561R (recombinant hHGF protein containing a cysteine to arginine substitution at position 561) (human); assay: SPR, antibody immobilized, HGF protein injected, 25 C
# Procedure: (§1) Each antibody was immobilized on a carboxymethylated dextran CM5 sensor chip (BIAcore, Catalog No. BR-1006-68) by amine coupling (BIAcore, Catalog No. BR-1000-50) using a standard coupling protocol according to manufacturer's instructions.
# (§2) Analyses were performed at 25° C. using PBS (GIBCO, Catalog No. 14040-133) containing 0.05% surfactant P20 (BIAcore, Catalog No. R-1000-54), 2 mg/mL BSA (EMD, Catalog No. 2930) and 10 mg/mL CM-Dextran Sodium salt (Fluka, Catalog No. 86524) as running buffer. […] The resulting binding was determined as resonance units (RU) over baseline 30 seconds after the end of injection. […] Non-specific binding was monitored by comparing binding to a control surface where mouse IgG (Rockland, Catalog No. 010-0102) was immobilized using the same amine coupling procedure.
# [2] = molecular target: hHGF-Fc G555E (recombinant hHGF protein containing a glycine to glutamate substitution at position 555) (human); assay: as above
# Sequence of hHGF-Fc G555E (recombinant hHGF protein containing a glycine to glutamate substitution at position 555) (human) (chain, as listed by the source G555E G555E limits assumed): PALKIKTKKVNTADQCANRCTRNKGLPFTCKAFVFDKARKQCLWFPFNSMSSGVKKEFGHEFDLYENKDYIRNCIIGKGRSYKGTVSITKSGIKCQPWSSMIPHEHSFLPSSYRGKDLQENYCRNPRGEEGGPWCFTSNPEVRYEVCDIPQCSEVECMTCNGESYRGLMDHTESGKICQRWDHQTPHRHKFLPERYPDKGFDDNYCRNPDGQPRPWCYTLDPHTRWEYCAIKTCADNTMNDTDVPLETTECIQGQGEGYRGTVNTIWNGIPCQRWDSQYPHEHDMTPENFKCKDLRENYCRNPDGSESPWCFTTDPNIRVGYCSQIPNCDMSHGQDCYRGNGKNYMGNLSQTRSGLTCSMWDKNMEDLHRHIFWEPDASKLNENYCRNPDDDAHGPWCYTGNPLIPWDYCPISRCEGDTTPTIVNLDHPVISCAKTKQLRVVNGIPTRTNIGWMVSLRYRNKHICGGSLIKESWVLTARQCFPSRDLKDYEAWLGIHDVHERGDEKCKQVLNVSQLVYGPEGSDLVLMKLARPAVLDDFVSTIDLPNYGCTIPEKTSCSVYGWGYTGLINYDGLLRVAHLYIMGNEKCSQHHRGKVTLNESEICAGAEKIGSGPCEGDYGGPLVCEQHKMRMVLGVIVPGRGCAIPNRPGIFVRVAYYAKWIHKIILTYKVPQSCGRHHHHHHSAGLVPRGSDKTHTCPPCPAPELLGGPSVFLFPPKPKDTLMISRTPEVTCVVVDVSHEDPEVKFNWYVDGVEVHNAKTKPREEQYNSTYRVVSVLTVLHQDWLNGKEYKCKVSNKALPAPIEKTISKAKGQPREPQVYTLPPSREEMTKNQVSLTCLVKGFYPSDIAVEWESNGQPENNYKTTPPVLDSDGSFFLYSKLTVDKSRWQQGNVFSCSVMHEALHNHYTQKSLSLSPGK
# Procedure: as §1, §2
# [3] = molecular target: T1, recombinant human HGF (R&D Systems, Catalog No. 294-HGN-025) (human, UniProt P14210 32-728); assay: cell-based or functional assay
# T1 sequence (P14210 32-728 limits assumed): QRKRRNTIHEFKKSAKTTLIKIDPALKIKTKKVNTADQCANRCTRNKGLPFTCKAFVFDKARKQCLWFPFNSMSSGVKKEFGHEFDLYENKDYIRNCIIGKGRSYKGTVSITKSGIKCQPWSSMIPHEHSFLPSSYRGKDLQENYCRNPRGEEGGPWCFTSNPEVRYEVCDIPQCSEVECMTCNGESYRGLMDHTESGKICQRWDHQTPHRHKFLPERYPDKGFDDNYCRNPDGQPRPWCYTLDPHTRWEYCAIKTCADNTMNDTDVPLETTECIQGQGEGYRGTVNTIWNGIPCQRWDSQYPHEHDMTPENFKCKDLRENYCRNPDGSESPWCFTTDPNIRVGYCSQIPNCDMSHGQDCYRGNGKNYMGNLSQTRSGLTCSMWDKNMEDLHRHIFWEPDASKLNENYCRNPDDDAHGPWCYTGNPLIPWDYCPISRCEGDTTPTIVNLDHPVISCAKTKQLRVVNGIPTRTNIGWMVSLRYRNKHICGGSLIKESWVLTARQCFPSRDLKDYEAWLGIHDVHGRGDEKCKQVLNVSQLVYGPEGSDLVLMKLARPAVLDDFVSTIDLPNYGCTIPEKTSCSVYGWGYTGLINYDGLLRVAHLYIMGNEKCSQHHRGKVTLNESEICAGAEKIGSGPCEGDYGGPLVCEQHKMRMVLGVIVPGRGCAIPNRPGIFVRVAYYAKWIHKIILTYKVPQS
# [4] = molecular target: T1, recombinant human HGF (R&D Systems, …); assay: SPR, antibody captured by anti-mouse Ig, HGF injected, 25 C
# Procedure: Rabbit anti-mouse immunoglobulins (BIAcore, Catalog No. BR-1005-14) were immobilized on carboxymethylated dextran CM5 sensor chips (BIAcore, Catalog No. BR-1006-68) by amine coupling (BIAcore, Catalog No. BR-1000-50) using a standard coupling protocol according to manufacturer's instructions. The analyses were performed at 25° C. using PBS (GIBCO, Catalog No. 14040-133) containing 0.05% surfactant P20 (BIAcore, Catalog No. BR-1000-54), 2 mg/mL BSA (EMD, Catalog No. 2930), and 10 mg/mL CM-Dextran Sodium salt (Fluka, Catalog No. 86524) as running buffer.
# The antibodies were captured in an individual flow cell at a flow rate of 10 μL/min. Injection time was variable for each antibody to yield approximately 20 RU of antibody captured for each cycle. […] The dissociation phase was monitored for 15 or 90 minutes, depending on concentration. The surface then was regenerated with 10 mM Glycine-HCl, pH 1.7 (BIAcore, Catalog No. BR-1003-54) injected for 3 minutes at a flow rate of 60 μL/min before another cycle was initiated.
# Kinetic parameters were determined using the kinetic function of the BIAevalutation software with reference subtraction.
# Sequence of hHGF-Fc C561R (recombinant hHGF protein containing a cysteine to arginine substitution at position 561) (human) (chain, as listed by the source C561R C561R limits assumed): as the sequence (chain, as listed by the source G555E G555E limits assumed) above, with E501G, C507R counted along it
binder,measurement,setting,value
"anti-hHGF monoclonal antibody 2B8 (antibody, mouse IgG1, kappa, Murine IgG1 kappa from hybridoma; also called murine 2B8; mouse 2B8) heavy: QVQLQQPGAELVKPGTSVKLSCKASGYTFTTYWMHWVNQRPGQGLEWIGEINPTNGHTNYNEKFKSKATLTVDKSSSTAYMQLSSLTSEDSAVYYCARNYVGSIFDYWGQGTTLTVSSAKTTPPSVYPLAPGSAAQTNSMVTLGCLVKGYFPEPVTVTWNSGSLSSGVHTFPAVLQSDLYTLSSSVTVPSSTWPSETVTCNVAHPASSTKVDKKIVPRDCGCKPCICTVPEVSSVFIFPPKPKDVLTITLTPKVTCVVVDISKDDPEVQFSWFVDDVEVHTAQTQPREEQFNSTFRSVSELPIMHQDWLNGKEFKCRVNSAAFPAPIEKTISKTKGRPKAPQVYTIPPPKEQMAKDKVSLTCMITDFFPEDITVEWQWNGQPAENYKNTQPIMDTDGSYFVYSKLNVQKSNWEAGNTFTCSVLHEGLHNHHTEKSLSHSPGK light: NIVMTQSPKSMSMSVGERVTLSCKASENVVSYVSWYQQKPAQSPKLLIYGASNRNTGVPDRFTGSGSATDFTLTISSVRAEDLADYHCGQSYNYPYTFGGGTRLEIKRADAAPTVSIFPPSSEQLTSGGASVVCFLNNFYPKDINVKWKIDGSERQNGVLNSWTDQDSKDSTYSMSSTLTLTKDEYERHNSYTCEATHKTSTSPIVKSFNRNEC",binding result,[1],binds
same,binding result,[2],binds
same,"EC50, inhibition of HGF-stimulated c-Met phosphorylation in PC-3 cells, Average of Two Trials",[3],287 pM
same,Kd,[4],13.5 pM
same,koff,[4],2.1e-05 s⁻¹
same,kon,[4],1.6e+06 M⁻¹ s⁻¹

# Source: patent publication US20140178935A1 (AVEO PHARMACEUTICALS, published 2014)
